Positions count from the first letter of the chain named.

For the assay, the target named is T1, human CD14 antigen (B294801, histidine tagged) (Homo sapiens, UniProt P08571).
T1 construct: His; purchased Shanghai BaiYing Biotechnology Co., Ltd B294801 (Batch number 20200518A22)
T1 sequence (P08571 20-345): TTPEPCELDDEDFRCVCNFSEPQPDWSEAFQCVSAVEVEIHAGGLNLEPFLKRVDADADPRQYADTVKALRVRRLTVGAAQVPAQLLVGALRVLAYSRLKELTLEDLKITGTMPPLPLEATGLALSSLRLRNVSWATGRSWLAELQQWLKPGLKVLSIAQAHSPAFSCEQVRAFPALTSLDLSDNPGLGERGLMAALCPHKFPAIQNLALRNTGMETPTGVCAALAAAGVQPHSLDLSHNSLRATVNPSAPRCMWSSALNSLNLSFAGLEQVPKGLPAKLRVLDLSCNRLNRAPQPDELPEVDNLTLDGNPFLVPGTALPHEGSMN
Description: Biacore 8K kinetic and affinity test of antibodies without PTM sites (Example 9). It is filed as binding. To be noted: Biacore 8K, analyte B294801 0.1953125-25 nM, capture conc. 1 μg/mL. The protocol:
Experimental reagents and consumables included cell culture fluid, electroporation buffer, CHO cells, 1 mL electroporation cuvette, Protein A chip (Cytiva, 29127556), various sizes of shake flasks, and various sizes of pipettes. Main instruments and equipment included a shaker (Taicang Huamei), centrifuge (Baiyang), ultrapure water system (Millipore), constant temperature incubator (BLUE PARD), electroporator, water bath, Biacore 8K (Cytiva), and ELISA system (Molecular Devices).
The antigen used for the binding affinity measurements is B294801. This antigen is a human CD14 antigen that is histidine tagged. D6DD3D001 is a mouse antibody, and MPDDAD001-MPDDAD005 are humanized antibodies. The antibodies are recombinant, human (hFc Tag). Selected parameters of the experimental samples are shown in Table 9-1, with MW referring to molecular weight in kDa.
The Biacore 8K platform was used to test the kinetic and affinity properties of the antibody, operating according to system instructions and indications.
Results of Affinity Detection. The affinity of the six antibodies was measured at saturation concentration. For the experiments, the analyte solution comprises the B294801 antigen with an analyte concentration of 0.1953125 nM, 0.390625 nM, 0.78125 nM, 1.5625 nM, 3.125 nM, 6.25 nM, 12.5 nM, and 25 nM. Change factor is described above.
In general terms: In SPR one partner is held on a chip, and binding of the other changes the refractive index at the surface.

B1: MPDDAD004: D6DD3D014-derived antibody with PTM site removed; VL amino acid nos. 34, 35: NA (antibody, V domains shown)
VH: QLQLQESGPGLVKPSETLSLTCTVSGGSISSDSAWNWIRQPPGKGLEWIGYISYSGSTSYNPSLKSRVTISRDTSKNQFSLKLSSVTAADTAVYYCVRGLRFAYWGQGTLVTVSS
VL: DIQLTQSPSSLSASVGDRVTITCRASESVDSYVNAFLHWYQQKPGKAPKLLIYRASNLQSGVPSRFSGSGSRTDFTLTISSLQPEDVATYYCQQSNEDPYTFGQGTKLEIK
With B1, the Koff was determined as 0.0046 s⁻¹ and the “kon (1:1 binding)” value turned out to be 775000 M⁻¹ s⁻¹.

B2: MPDDAD002: D6DD3D014-derived antibody with PTM site removed; VL amino acid nos. 34, 35: SS (antibody, V domains shown)
VH: B1 VH
VL: B1 VL with N34S, A35S
Take B2: the Koff came to 0.00362 s⁻¹ and the “kon (1:1 binding)” value was determined as 1.29e+06 M⁻¹ s⁻¹.

B3: MPDDAD005: D6DD3D014-derived antibody with PTM site removed; VL amino acid nos. 34, 35: QS (antibody, V domains shown)
VH: B1 VH
VL: B1 VL with N34Q, A35S
B3: the Koff stood at 0.00544 s⁻¹ and the “kon (1:1 binding)” value worked out at 1.11e+06 M⁻¹ s⁻¹.

B4: MPDDAD001: D6DD3D014-derived antibody with PTM site removed; VL amino acid nos. 34, 35: DS (antibody, V domains shown)
VH: B1 VH
VL: B1 VL with N34D, A35S
In the case of B4, the Koff was 0.00633 s⁻¹ and the “kon (1:1 binding)” value is 847000 M⁻¹ s⁻¹.

The record behind these values is patent US20250011456A1, “ANTIBODIES AGAINST CD14 AND USES THEREOF” (Villanelle Life Science Inc, priority 2023, published 2025).
